Results taken from PMC8560993.

Experiments:
F-actin (rabbit) [1] = target: F-actin (rabbit) (UniProt P68135)
[2] = target: Regulated thin filaments (TRITC-actin with skeletal tropomyosin and troponin) (rabbit | not stated) (UniProt P68135)
F-actin (rabbit) [3] = target: F-actin (rabbit) (UniProt P68135); remark: listed apart in the source
F-actin (rabbit) [4] = target: F-actin (rabbit) (UniProt P68135); remark: listed apart in the source
F-actin (rabbit) [5] = target: F-actin (rabbit) (UniProt P68135); remark: listed apart in the source
F-actin (rabbit) [6] = target: F-actin (rabbit) (UniProt P68135); remark: listed apart in the source

Skeletal muscle myosin (from UniProt Q28641 1-1938) (complex)
actin activation of the ATPase activity of surface-bound myosin at low N in a motility flow cell (0.15 μM actin, Figure 3) (F-actin (rabbit) [1]): 4 fold | pseudo KM for pCa50: half the N at which the pCa50 of thin filament sliding velocity saturates, in vitro motility assay, 50 mM KCl [2]: 24 | pseudo KM for pCa50: half the N at which the pCa50 of thin filament sliding velocity saturates, in vitro motility assay, 100 mM KCl [2]: 26 | KM for F(N): N at half-maximal V(N) against a mechanical load of 0.5 μg/ml α-actinin on the motility surface (F-actin (rabbit) [3]): 16 | KM for F(N): N at half-maximal V(N) against a mechanical load of 1.0 μg/ml α-actinin on the motility surface (F-actin (rabbit) [3]): 38 | KM for V: N (myosin per μm actin; N equals μg/ml myosin incubated) at half-maximal actin sliding velocity V(N), in vitro motility assay, 50 mM KCl, 30 °C (F-actin (rabbit) [3]): 16 | KM for V: N at half-maximal actin sliding velocity V(N), in vitro motility assay, 100 mM KCl, 30 °C (F-actin (rabbit) [3]): 17 | KM for v: N at half-maximal actin-activated ATPase activity v(N), measured in a motility flow cell, 50 mM KCl, 30 °C (F-actin (rabbit) [3]): 46 | KM for v: N at half-maximal actin-activated ATPase activity v(N), measured in a motility flow cell, 100 mM KCl, 30 °C (F-actin (rabbit) [3]): 23 | KM: N at half-maximal V(N), in vitro motility assay, control without α-actinin (Figure 5A) (F-actin (rabbit) [4]): 19 | inhibition of actin-activated ATPase activity (N = 5, 1.0 μM actin; v from 0.59 to 0.26 μM Pi/min) by the load of 1.0 μg/ml α-actinin on the motility surface (F-actin (rabbit) [5]): 55% | KM: N at half-maximal V(N), in vitro motility assay, control without (-)-blebbistatin (Figure 2D) (F-actin (rabbit) [6]): 16.1 | KM: N at half-maximal V(N), in vitro motility assay, with 10 μM (-)-blebbistatin (Figure 2D) (F-actin (rabbit) [6]): 13.3 | KM: N at half-maximal V(N), in vitro motility assay, with 50 μM (-)-blebbistatin (Figure 2D) (F-actin (rabbit) [6]): 6.4
